Numbering of substitutions follows the chain as printed. Where two headings read alike, the source gives them in different places.

Results on 13 molecules are retold here after patent US20240287177A1 (Merck KGaA, published 2024).

Test [1] concerns the target T1, recombinant human NKp30 extracellular domain, his-tagged (human, UniProt O14931 19-135).
T1 construct: BLI used human NKp30 bought from Abcam (his-tagged ECD); also called rh NKp30 ECD; human NKp30 (Abcam); not shown: his tag
T1 sequence: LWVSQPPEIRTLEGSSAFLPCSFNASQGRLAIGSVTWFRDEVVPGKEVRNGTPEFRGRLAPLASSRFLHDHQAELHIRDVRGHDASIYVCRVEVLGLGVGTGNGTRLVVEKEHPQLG
The test is described as follows: BLI as in Example 1.

Test [2] addresses T1, recombinant human NKp30 extracellular …. Nature of the test: BLI as in Example 1, maximum binding capacity.
Test [3] addresses recombinant human NKp30 extracellular domain, his-tagged (human) (UniProt O14931). Nature of the test: BLI, SEEDbody on anti-human Fc sensors, soluble NKp30, 1:1 fit. (In general: BLI is a label-free optical method that tracks binding on a fibre tip over time.)
The target in test [4] is FcγRIIIa on human NK cells (human) (UniProt P08637). Nature of the test: cell-based or functional assay.
FcγRIIIa on human NK cells (human), sequence (P08637 17-254): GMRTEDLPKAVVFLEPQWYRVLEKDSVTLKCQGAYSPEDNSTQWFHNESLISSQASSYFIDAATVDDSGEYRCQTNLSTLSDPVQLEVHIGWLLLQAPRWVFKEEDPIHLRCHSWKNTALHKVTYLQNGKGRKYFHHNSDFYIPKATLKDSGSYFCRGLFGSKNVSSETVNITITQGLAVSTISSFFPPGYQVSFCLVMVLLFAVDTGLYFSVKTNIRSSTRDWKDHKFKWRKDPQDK
In test [5] the target is NKp30 on human NK cells (human) (UniProt O14931). Nature of the test: cell-based or functional assay.
Test [6] has as its target T1, recombinant human NKp30 extracellular …. Nature of the test: BLI as in Example 1, maximum binding capacity. The source holds these as a separate data set.
The target is the same in test [7]. The test is described as follows: BLI as in Example 1. The source holds these as a separate data set.

B1: VHH2.16 (humanized) (VHH)
VHH: EVQLVESGGGVVQPGGSLRLSCAASGQTWTNYHIGWFRQAPGKGLEWVASIEWGGRGTYATDSVKGRFTISRDNAKNTLYLQMNSLRAEDTAVYYCAAQSSSRSPLESNYDYWGQGTLVTVSS
notes: expressed and measured by BLI 'as described in Experiment 1' (there: bispecific SEEDbody on anti-human Fc sensors)
B1: the Kd in test [1] stood at 4.71 nM. The “Emax (nm)” value in test [2] was 0.11 nm.

B2: VHH2 SEEDbody eff- (bispecific antibody, part only; not given: silenced SEED Fc and cetuximab Fab, V domains shown, not shown: another chain or arm of the molecule; a dimerising Fc or GST; small tags and cut ends)
VHH: DVQLQESGGGLVQAGGSLRLSCAVSGQTWTNYHIGWFRQAPGKARESVASIEWGGRGTYATDSVKGRFTISRDNAKNTVYLQMNSLKPEDTAVYYCAAQSSSRSPLESNYDYWGQGTQVTVSS
Take B2: in test [3], the Kd was 3.27 nM, the koff was 0.000646 s⁻¹ and the kon is 198000 M⁻¹ s⁻¹. Also, in test [4], the EC50, lysis of A431 cells by isolated NK cells, E:T 10:1 came to 0.0039 nM and the fold increase of killing potency, eff+ against eff- amounted to 8.8 fold. In test [5], this molecule came in with an EC50 (nM), MNC based killing of A431 cells, E:T 80:1 of 0.0132 nM; an EC50, lysis of A431 cells by isolated NK cells, E:T 10:1 of 0.0344 nM; a Max. IFNγ release (pg/ml), NK cells with A431 cells of 580 pg/mL; a Max. Killing (% Lysis), MNC based killing of A431 cells, E:T 80:1 of 51 % Lysis. Moreover, the Max. TNFα release (pg/ml), NK cells with A431 cells in test [5] worked out at 118 pg/mL.

B3: VHH1 SEEDbody eff- (bispecific antibody, part only; not given: silenced SEED Fc and cetuximab Fab, V domains shown, not shown: another chain or arm of the molecule; a dimerising Fc or GST; small tags and cut ends)
VHH: DVQLQESGGGLVQPGGSLRLSCATSGFTLDDYTIGWVRQAPGKEHEGVSCFSPSDGTTYYADSVKGRFTFSRDNAKNTVYLQMNSLKPEDTAVYYCAASFADGSSWCYDYWGQGTQVTVSS
Take B3: in test [3], the Kd stood at 0.27 nM, the koff worked out at 0.000222 s⁻¹ and the kon turned out to be 819000 M⁻¹ s⁻¹. Further, in test [4], the EC50, lysis of A431 cells by isolated NK cells, E:T 10:1 amounted to 0.0032 nM. In test [5], the EC50 (nM), MNC based killing of A431 cells, E:T 80:1 turned out to be 0.00171 nM; the EC50, lysis of A431 cells by isolated NK cells, E:T 10:1 worked out at 0.0022 nM; the Max. IFNγ release (pg/ml), NK cells with A431 cells was 753 pg/mL; the Max. Killing (% Lysis), MNC based killing of A431 cells, E:T 80:1 amounted to 53 % Lysis. In test [5], this molecule showed a Max. TNFα release (pg/ml), NK cells with A431 cells of 104 pg/mL.

B4: VHH1 (parental, as tested in Example 8) (VHH)
VHH: B3 VHH
notes: as for B1
As to B4, the “Emax (nm)” value in test [6] stood at 0.13 nm. Also, the dissociation constant Kd in test [7] is 0.248 nM.

B5: VHH1.8 (humanized) (VHH)
VHH: B3 VHH with D1E, Q5V, L11V, E44G, H45L, F70I, V79L, K87R, P88A, Q116L
notes: as for B1
As for B5, the “Emax (nm)” value in test [6] came to 0.1 nm. In addition, in test [7], the Kd was determined as 1.13 nM.

B6: VHH1.9 (humanized) (VHH)
VHH: EVQLVESGGGVVQPGGSLRLSCAASGFTLDDYTIGWVRQAPGKGLEGVSCFSPSDGTTYYADSVKGRFTISRDNAKNTLYLQMNSLRAEDTAVYYCAASFADGSSWCYDYWGQGTLVTVSS
notes: as for B1
Take B6: the “Emax (nm)” value in test [6] turned out to be 0.1 nm. In test [7], the Kd was determined as 1.06 nM.

B7: VHH1.2 (humanized) (VHH)
VHH: B6 VHH with A24T, G44E, L45H, I70F
notes: as for B1
For the molecule B7, the “Emax (nm)” value in test [6] stood at 0.12 nm. In addition, in test [7], the Kd came to 0.293 nM.

B8: VHH1.5 (humanized) (VHH)
VHH: B6 VHH with L79V
notes: as for B1
Take B8: in test [6], the “Emax (nm)” value turned out to be 0.1 nm. Besides, in test [7], the Kd is 0.888 nM.

B9: VHH1.4 (humanized) (VHH)
VHH: B6 VHH with A24T, I70F, L79V
notes: as for B1
As for B9, in test [6], the “Emax (nm)” value was 0.12 nm. Further, the dissociation constant (Kd) in test [7] was 0.547 nM.

B10: VHH1.6 (humanized) (VHH)
VHH: B6 VHH with A24T, I70F
notes: as for B1
B10: in test [6], the “Emax (nm)” value is 0.14 nm. Further, the Kd in test [7] was determined as 0.797 nM.

B11: VHH1.1 (humanized) (VHH)
VHH: B6 VHH with A24T, G44E, L45H, I70F, L79V
notes: as for B1
As for B11, the “Emax (nm)” value in test [6] was determined as 0.13 nm. Moreover, the Kd in test [7] was 0.275 nM.

B12: VHH1.7 (humanized) (VHH)
VHH: B6 VHH with I70F
notes: as for B1
B12: in test [6], the “Emax (nm)” value amounted to 0.09 nm. Also, the Kd in test [7] turned out to be 0.533 nM.

B13: VHH1.3 (humanized) (VHH)
VHH: B6 VHH with G44E, L45H
notes: as for B1
Take B13: the “Emax (nm)” value in test [6] came out at 0.12 nm. In addition, the Kd in test [7] came to 1.07 nM.

As usually defined, the Kd is a measure of binding affinity in units of concentration. One may read the koff as the rate constant with which the complex falls apart. One may read the kon as the rate constant with which the complex forms.
